Earlier results in patent US7745390B2, “Antimicrobial peptides” (priority 2005, dated 2010).

Test system: E. coli
Settings: previously reported; cited from earlier work

B1: recombinant granulysin: protein expressed by human cytotoxic T lymphocytes and natural killer cells, recombinant form (protein, UniProt P22749 23-145, looked up)
Granulysin: RLSPEYYDLARAHLRDEEKSCPCLAQEGPQGDLLTKTQELGRDYRTCLTIVQKLKKMVDKPTQRSVSNAATRVCRTGRSRWRDVCRNFMRRYQSRVTQGLVAGETAQQICEDLRLCIPSTGPL
  activity depending on ionic strength of media: completely loses activity in media>50 mM salt
